Measured values from patent publication US11008403 (dated 2021).
Values joined by “and” are separate entries in the source; they are usually repeats but may differ in a detail not shown here. Identical values can stand only once. Like-named read-outs stand apart in the source and are kept apart here.

T1: cyno TfR ECD (cynomolgus)
T1 chain: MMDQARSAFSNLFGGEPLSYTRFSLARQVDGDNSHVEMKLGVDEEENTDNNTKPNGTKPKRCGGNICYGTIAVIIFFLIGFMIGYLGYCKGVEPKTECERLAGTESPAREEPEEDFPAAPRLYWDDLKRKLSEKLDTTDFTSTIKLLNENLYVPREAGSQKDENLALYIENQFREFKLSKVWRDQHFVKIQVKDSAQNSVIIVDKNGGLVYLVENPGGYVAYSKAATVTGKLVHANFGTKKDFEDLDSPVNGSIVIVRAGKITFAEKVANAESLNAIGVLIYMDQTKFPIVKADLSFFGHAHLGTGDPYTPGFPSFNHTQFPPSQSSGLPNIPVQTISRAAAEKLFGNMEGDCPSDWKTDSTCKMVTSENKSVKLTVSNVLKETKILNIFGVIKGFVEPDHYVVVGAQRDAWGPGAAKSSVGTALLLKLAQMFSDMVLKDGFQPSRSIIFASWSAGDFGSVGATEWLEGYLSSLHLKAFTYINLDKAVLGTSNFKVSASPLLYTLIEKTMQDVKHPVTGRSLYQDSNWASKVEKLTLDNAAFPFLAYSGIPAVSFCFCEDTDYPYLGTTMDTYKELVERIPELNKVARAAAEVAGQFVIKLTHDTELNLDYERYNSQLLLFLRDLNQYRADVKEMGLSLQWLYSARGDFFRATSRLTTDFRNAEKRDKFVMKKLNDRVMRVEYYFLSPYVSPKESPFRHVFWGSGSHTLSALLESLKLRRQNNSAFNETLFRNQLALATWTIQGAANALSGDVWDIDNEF

T2: cyno FcRn (cynomolgus, UniProt Q8SPV9)
T2 chain 1: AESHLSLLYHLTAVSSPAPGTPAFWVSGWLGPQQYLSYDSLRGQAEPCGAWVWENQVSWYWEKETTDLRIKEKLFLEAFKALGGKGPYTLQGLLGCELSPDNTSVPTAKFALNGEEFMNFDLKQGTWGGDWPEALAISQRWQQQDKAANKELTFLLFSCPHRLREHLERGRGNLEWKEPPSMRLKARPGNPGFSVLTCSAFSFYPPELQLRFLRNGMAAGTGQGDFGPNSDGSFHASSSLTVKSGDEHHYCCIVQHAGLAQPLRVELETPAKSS
T2 chain 2: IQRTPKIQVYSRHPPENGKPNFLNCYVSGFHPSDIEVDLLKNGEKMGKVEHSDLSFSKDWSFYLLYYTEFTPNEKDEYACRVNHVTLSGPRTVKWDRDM


Columns and labels:
cyno TfR ECD [1] = target: T1, cyno TfR ECD; experiment: SPR
human TfR ECD [2] = target: human TfR ECD (human); experiment: SPR
human TfR ECD [3] = target: human TfR ECD (human); experiment: SPR; remark: listed apart in the source
human TfR ECD [4] = target: human TfR ECD (human); experiment: SPR; remark: listed apart in the source
cyno TfR ECD [5] = target: T1, cyno TfR ECD; experiment: SPR
cyno TfR ECD [6] = target: T1, cyno TfR ECD; experiment: SPR
human FcRn = human FcRn (human, UniProt P55899); experiment: SPR, pH 6.0
cyno FcRn = target: T2, cyno FcRn; experiment: SPR, pH 6.0

| Kd (cyno TfR ECD [1]) [µM] | Kd (human TfR ECD [3]) | Kd (human FcRn) [µM] | Kd (cyno FcRn) [µM] | Binder | also measured |
| --- | --- | --- | --- | --- | --- |
| 0.117 | 0.0346 µM and 0.0444 µM | – | – | Hu15G11.HC52A Fab (antiTfR.52A.Fab) (antibody, V domains shown) VH: EVQLVQSGAEVKKPGASVKVSCKASGYTFTSYWMHWVRQAPGQRLEWIGEIAPTNGRTNYIEKFKSRATLTVDKSASTAYMELSSLRSEDTAVYYCARGTRAYHYWGQGTMVTVSS VL: DIQMTQSPSSLSASVGDRVTITCRASDNLYSNLAWYQQKPGKSPKLLVYDATNLADGVPSRFSGSGSGTDYTLTISSLQPEDFATYYCQHFWGTPLTFGQGTKVEIK | Kd (human TfR ECD [2]): 0.055 µM |
| – | – | – | – | Hu15G11.W92A bispecific, TfR arm (antibody, V domains shown) VH: EVQLVQSGAEVKKPGASVKVSCKASGYTFTSYWMHWVRQAPGQRLEWIGEINPTNGRTNYIEKFKSRATLTVDKSASTAYMELSSLRSEDTAVYYCARGTRAYHYWGQGTMVTVSS VL: DIQMTQSPSSLSASVGDRVTITCRASDNLYSNLAWYQQKPGKSPKLLVYDATNLADGVPSRFSGSGSGTDYTLTISSLQPEDFATYYCQHFAGTPLTFGQGTKVEIK | Kd (human TfR ECD [4]): 0.295 µM; Kd (cyno TfR ECD [5]): 0.622 µM |
| 0.0518 | 0.0129 µM | – | – | Hu15G11.HC53A Fab (antibody, V domains shown) VH: EVQLVQSGAEVKKPGASVKVSCKASGYTFTSYWMHWVRQAPGQRLEWIGEINPANGRTNYIEKFKSRATLTVDKSASTAYMELSSLRSEDTAVYYCARGTRAYHYWGQGTMVTVSS VL: DIQMTQSPSSLSASVGDRVTITCRASDNLYSNLAWYQQKPGKSPKLLVYDATNLADGVPSRFSGSGSGTDYTLTISSLQPEDFATYYCQHFWGTPLTFGQGTKVEIK | – |
| 0.105 | 0.0239 µM | – | – | Hu15G11.HC51A Fab (antibody, V domains shown) VH: EVQLVQSGAEVKKPGASVKVSCKASGYTFTSYWMHWVRQAPGQRLEWIGEANPTNGRTNYIEKFKSRATLTVDKSASTAYMELSSLRSEDTAVYYCARGTRAYHYWGQGTMVTVSS VL: DIQMTQSPSSLSASVGDRVTITCRASDNLYSNLAWYQQKPGKSPKLLVYDATNLADGVPSRFSGSGSGTDYTLTISSLQPEDFATYYCQHFWGTPLTFGQGTKVEIK | – |
| – | – | – | – | Anti-TfR2/6266.hIgG1.LALAPG.YTE, TfR arm (antibody, V domains shown) VH: EVQLVQSGAEVKKPGASVKVSCKASGYTFTSYWMHWVRQAPGQRLEWIGEINPTNGRTNYIEKFKSRATLTVDKSASTAYMELSSLRSEDTAVYYCARGTRAYHYWGQGTMVTVSS VL: DIQMTQSPSSLSASVGDRVTITCRASDNLYSNLAWYQQKPGKSPKLLVYDATNLADGVPSRFSGSGSGTDYTLTISSLQPEDFATYYCQHFAGTPLTFGQGTKVEIKR | Kd (cyno TfR ECD [6]): 1.65 µM |
| – | – | – | – | antiTfR.52A.M108L.Fab (antibody, V domains shown) VH: EVQLVQSGAEVKKPGASVKVSCKASGYTFTSYWMHWVRQAPGQRLEWIGEIAPTNGRTNYIEKFKSRATLTVDKSASTAYMELSSLRSEDTAVYYCARGTRAYHYWGQGTLVTVSS VL: DIQMTQSPSSLSASVGDRVTITCRASDNLYSNLAWYQQKPGKSPKLLVYDATNLADGVPSRFSGSGSGTDYTLTISSLQPEDFATYYCQHFWGTPLTFGQGTKVEIK | Kd (human TfR ECD [2]): 0.0722 µM |
| – | – | 0.3 | 0.2 | Anti-TfR2/6266.hIgG1.LALAPG.YTE (antibody) chain 1: EVQLVQSGAEVKKPGASVKVSCKASGYTFTSYWMHWVRQAPGQRLEWIGEINPTNGRTNYIEKFKSRATLTVDKSASTAYMELSSLRSEDTAVYYCARGTRAYHYWGQGTMVTVSSASTKGPSVFPLAPSSKSTSGGTAALGCLVKDYFPEPVTVSWNSGALTSGVHTFPAVLQSSGLYSLSSVVTVPSSSLGTQTYICNVNHKPSNTKVDKKVEPKSCDKTHTCPPCPAPEAAGGPSVFLFPPKPKDTLYITREPEVTCVVVDVSHEDPEVKFNWYVDGVEVHNAKTKPREEQYNSTYRVVSVLTVLHQDWLNGKEYKCKVSNKALGAPIEKTISKAKGQPREPQVYTLPPSREEMTKNQVSLSCAVKGFYPSDIAVEWESNGQPENNYKTTPPVLDSDGSFFLVSKLTVDKSRWQQGNVFSCSVMHEALHNHYTQKSLSLSPGK chain 2: DIQMTQSPSSLSASVGDRVTITCRASDNLYSNLAWYQQKPGKSPKLLVYDATNLADGVPSRFSGSGSGTDYTLTISSLQPEDFATYYCQHFAGTPLTFGQGTKVEIKRTVAAPSVFIFPPSDEQLKSGTASVVCLLNNFYPREAKVQWKVDNALQSGNSQESVTEQDSKDSTYSLSSTLTLSKADYEKHKVYACEVTHQGLSSPVTKSFNRGEC chain 3: not shown chain 4: not shown | – |
| – | – | 0.8 | 1.2 | Anti-TfR.52A/6266.hIgG1.LALAPG (antibody) chain 1: EVQLVQSGAEVKKPGASVKVSCKASGYTFTSYWMHWVRQAPGQRLEWIGEIAPTNGRTNYIEKFKSRATLTVDKSASTAYMELSSLRSEDTAVYYCARGTRAYHYWGQGTMVTVSSASTKGPSVFPLAPSSKSTSGGTAALGCLVKDYFPEPVTVSWNSGALTSGVHTFPAVLQSSGLYSLSSVVTVPSSSLGTQTYICNVNHKPSNTKVDKKVEPKSCDKTHTCPPCPAPEAAGGPSVFLFPPKPKDTLMISRTPEVTCVVVDVSHEDPEVKFNWYVDGVEVHNAKTKPREEQYNSTYRVVSVLTVLHQDWLNGKEYKCKVSNKALGAPIEKTISKAKGQPREPQVYTLPPSREEMTKNQVSLSCAVKGFYPSDIAVEWESNGQPENNYKTTPPVLDSDGSFFLVSKLTVDKSRWQQGNVFSCSVMHEALHNHYTQKSLSLSPGK chain 2: DIQMTQSPSSLSASVGDRVTITCRASDNLYSNLAWYQQKPGKSPKLLVYDATNLADGVPSRFSGSGSGTDYTLTISSLQPEDFATYYCQHFWGTPLTFGQGTKVEIKRTVAAPSVFIFPPSDEQLKSGTASVVCLLNNFYPREAKVQWKVDNALQSGNSQESVTEQDSKDSTYSLSSTLTLSKADYEKHKVYACEVTHQGLSSPVTKSFNRGEC chain 3: not shown chain 4: not shown | – |
| – | – | 0.2 | 0.2 | Anti-TfR.52A/6266.hIgG1.LALAPG.YTE (antibody) chain 1: EVQLVQSGAEVKKPGASVKVSCKASGYTFTSYWMHWVRQAPGQRLEWIGEIAPTNGRTNYIEKFKSRATLTVDKSASTAYMELSSLRSEDTAVYYCARGTRAYHYWGQGTMVTVSSASTKGPSVFPLAPSSKSTSGGTAALGCLVKDYFPEPVTVSWNSGALTSGVHTFPAVLQSSGLYSLSSVVTVPSSSLGTQTYICNVNHKPSNTKVDKKVEPKSCDKTHTCPPCPAPEAAGGPSVFLFPPKPKDTLYITREPEVTCVVVDVSHEDPEVKFNWYVDGVEVHNAKTKPREEQYNSTYRVVSVLTVLHQDWLNGKEYKCKVSNKALGAPIEKTISKAKGQPREPQVYTLPPSREEMTKNQVSLSCAVKGFYPSDIAVEWESNGQPENNYKTTPPVLDSDGSFFLVSKLTVDKSRWQQGNVFSCSVMHEALHNHYTQKSLSLSPGK chain 2: DIQMTQSPSSLSASVGDRVTITCRASDNLYSNLAWYQQKPGKSPKLLVYDATNLADGVPSRFSGSGSGTDYTLTISSLQPEDFATYYCQHFWGTPLTFGQGTKVEIKRTVAAPSVFIFPPSDEQLKSGTASVVCLLNNFYPREAKVQWKVDNALQSGNSQESVTEQDSKDSTYSLSSTLTLSKADYEKHKVYACEVTHQGLSSPVTKSFNRGEC chain 3: not shown chain 4: not shown | – |
| – | – | 1.1 | 1.2 | Anti-TfR2/6266.hIgG1.LALAPG (antibody) chain 1: EVQLVQSGAEVKKPGASVKVSCKASGYTFTSYWMHWVRQAPGQRLEWIGEINPTNGRTNYIEKFKSRATLTVDKSASTAYMELSSLRSEDTAVYYCARGTRAYHYWGQGTMVTVSSASTKGPSVFPLAPSSKSTSGGTAALGCLVKDYFPEPVTVSWNSGALTSGVHTFPAVLQSSGLYSLSSVVTVPSSSLGTQTYICNVNHKPSNTKVDKKVEPKSCDKTHTCPPCPAPEAAGGPSVFLFPPKPKDTLMISRTPEVTCVVVDVSHEDPEVKFNWYVDGVEVHNAKTKPREEQYNSTYRVVSVLTVLHQDWLNGKEYKCKVSNKALGAPIEKTISKAKGQPREPQVYTLPPSREEMTKNQVSLSCAVKGFYPSDIAVEWESNGQPENNYKTTPPVLDSDGSFFLVSKLTVDKSRWQQGNVFSCSVMHEALHNHYTQKSLSLSPGK chain 2: DIQMTQSPSSLSASVGDRVTITCRASDNLYSNLAWYQQKPGKSPKLLVYDATNLADGVPSRFSGSGSGTDYTLTISSLQPEDFATYYCQHFAGTPLTFGQGTKVEIKRTVAAPSVFIFPPSDEQLKSGTASVVCLLNNFYPREAKVQWKVDNALQSGNSQESVTEQDSKDSTYSLSSTLTLSKADYEKHKVYACEVTHQGLSSPVTKSFNRGEC chain 3: not shown chain 4: not shown | – |
